The values below come from PMC6028617, “ADP-Dependent Kinases From the Archaeal Order Methanosarcinales Adapt to Salt by a Non-canonical Evolutionarily Conserved Strategy” (Frontiers in Microbiology, 2018).

For one data set, the target named is T1, AncMsPFK/GK (synthetic construct, UniProt Z9Y5W3ZEF0).
T1 construct: heat step 80 C, Ni-Sepharose
T1 sequence (Z9Y5W3ZEF0 22-511): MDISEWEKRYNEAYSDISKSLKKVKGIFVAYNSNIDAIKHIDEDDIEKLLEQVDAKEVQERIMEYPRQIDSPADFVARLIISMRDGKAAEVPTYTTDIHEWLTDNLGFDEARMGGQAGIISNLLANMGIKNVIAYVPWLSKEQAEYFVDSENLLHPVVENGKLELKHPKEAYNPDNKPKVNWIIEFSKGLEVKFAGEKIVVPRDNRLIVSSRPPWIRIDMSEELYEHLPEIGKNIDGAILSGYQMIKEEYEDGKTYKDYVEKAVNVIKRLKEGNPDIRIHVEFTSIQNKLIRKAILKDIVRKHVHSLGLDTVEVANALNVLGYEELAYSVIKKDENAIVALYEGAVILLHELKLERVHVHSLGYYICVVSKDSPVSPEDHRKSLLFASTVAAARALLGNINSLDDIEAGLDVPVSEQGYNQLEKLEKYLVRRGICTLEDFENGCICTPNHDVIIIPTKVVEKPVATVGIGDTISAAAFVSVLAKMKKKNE
Briefly: X-ray crystal structure, […] Å. The format is binding. Conditions: Mg2+ in active site; Ni2+ at three surface sites; crystals pH 4.5.

Substrate in the data set “purified protein”: Nc1ncnc2c1ncn2[C@@H]1O[C@H](COP(=O)(O)OP(=O)(O)O)[C@@H](O)[C@H]1O
Nature of the data set: purified protein. It is filed as biochemical, Methanosarcina mazei. Conditions: PFK activity, saturating fructose-6P, 25 mM PIPES pH 6.5, 40 C, as Mg-ADP.

Take `Nc1ncnc2c1ncn2[C@@H]1O[C@H](COP(=O)(O)OP(=O)(O)O)[C@@H](O)[C@H]1O` [ADP]: at AncMsPFK/GK, the “X-ray crystal structure, 2.86 Å” value is “crystals for the ancMsPFK/GK in complex with ADP, which was solved by molecular replacement”.

B1: MmazPFK/GK (Methanosarcina mazei Go1) (protein)
chain: MDMEEWEQRHNEAFYDAKEALPYLDGMFVAYNSNIDAIRHLDEEALTKLIGFFDEAEIQERVAVYPREIADPLDFIARLLIAMREGKAAEVPTYTEEIHTWLKEHLGFDYARMGGQAGIISNLLARLDLKKVVAYIPWLSAEQAEYFEDNGNILHPKVENGEVVLKTPAEAFNPGMGSKVNWIFEFSKDLKVSCAGSTFKVPRDNRLIISSRPKWIRLDMDRAIYDQLETIFPVDGAMLSGYQMIKEEYEDGSTYKDYVEHSVEVINKLKSLNPDLRIHVELTSIQNRVIRKAILTEIVARHVHSLGLDTVEVANALNVLGYEELSYSVIRKGENGIMSLYQGAVQLMKDLKLERVHVHSLGFYICILAKGHPLTLKEHRDALLFSSVLAASRALHGKIEDLNEAETGLDVPVSAQGLEDLETFKLYCTGRKLCSPDEFEYGYIYGSDHDAILIPSKVVDRPKATVGIGDTISAGAFAAMLARMKQIKSGK
notes: de novo codon-optimized gene in pET-15b, N-terminal poly-His tag, E. coli C41; heat step 50 C, Ni-NTA, HiTrap-Q
One may read the Km as the substrate concentration at which the rate is half of its maximum. What is called kcat is the maximal rate divided by the concentration of active sites. For orientation: kcat/Km means the turnover number divided by the Michaelis constant. For B1, in “purified protein”, the Km came to 72 ± 9 µM, the kcat worked out at 6.1 ± 0.3 s⁻¹ and the kcat/Km amounted to 84500 M⁻¹ s⁻¹.
